The target of this test is anti-RSV 2Fc mAb (dual Fc human IgG1, clone B21M variable regions) (human). The experiment in a line: SPR. For orientation: In SPR one partner is held on a chip, and binding of the other changes the refractive index at the surface.

pKd: −log10 of the molar value.

Results on two substances are retold here after paper PMC7125023.

By pKd is commonly meant −log10 of the Kd, conventionally taken in molar units. A low value points to a high Kd. For orientation: stoichiometry N means the number of molecules, sites or subunits per partner or assembly.

For “human FcγRI (from UniProt P12314 16-292) (receptor)”, the negative logarithm of the Kd (pKd) was 8.74 and the stoichiometry N is 2.12 FcR:mAb.
On the same counts, the results for “human neonatal Fc receptor (FcRn) (from UniProt P55899 24-297)” are 6.92 and 4.17 FcR:mAb.
